The record followed here is patent publication US20220127350A1 (NUMAB THERAPEUTICS, published 2022).

Test [1] addresses T1, human IL-17A (human, UniProt Q16552 24-155, limits assumed). The experiment in a line: cell-based or functional assay.
The target of test [2] is T2, human TNFα (human, UniProt P01375 77-233). The experiment in a line: cell-based or functional assay.
The target of test [3] is T1, human IL-17A. Description: cell-based or functional assay. The source holds these as a separate data set.
Test [4] addresses T2, human TNFα. The experiment in a line: cell-based or functional assay. The source holds these as a separate data set.
Test [5] deals with T2, human TNFα. The experiment in a line: SPR (summary table), affinity to human TNF.
Description: (§1) In this experiment, the biotinylated antigens were captured using the Biotin-CAPture kit from Biacore. After each analyte injection cycle the CAP sensor chip was regenerated and new antigen was captured. Trispecific molecules were injected as analyte using a dose response multicycle kinetic assay with concentrations of the analyte ranging from 0.35 to 90 nM diluted in running buffer. Obtained sensorgrams were fitted using the 1:1 binding model.
The target of test [6] is T3, human serum albumin (human, UniProt P02768 25-609).
T3 construct: also called HSA
Description: SPR (summary table), affinity to HSA at pH 5.5.
Description: (§2) The binding to human serum albumin (HSA) and cynomolgus serum albumin (CSA) was assessed for purified trispecific molecules by running SPR spectroscopy on a MASS-1 device (Sierra Sensors). HSA was directly immobilized on a high capacity amine sensor chip (Sierra Sensors) and trispecific molecules were injected as analyte using a dose response multicycle kinetic assay with concentrations of the analyte ranging from 0.35 to 90 nM diluted either in running buffer at pH5.5 or pH7.5. Obtained sensorgrams were fitted using the 1:1 binding model. Affinity to CSA was assessed in a similar approach using a CSA immobilized sensor chip.

Test [7] addresses T1, human IL-17A. Description: SPR (summary table), affinity to human IL-17, capture setup.
Description: as §1
In test [8] the target is T4, cynomolgus serum albumin (cynomolgus monkey, UniProt A2V9Z4 25-608).
T4 construct: also called CSA
Description: SPR (MASS-1), CSA immobilised, trispecific as analyte, pH 5.5.
Description: as §2

The target in test [9] is T4, cynomolgus serum albumin. Description: SPR (MASS-1), CSA immobilised, trispecific as analyte, pH 7.4.
Description: as §2
In test [10] the target is T3, human serum albumin. Description: SPR (MASS-1), HSA immobilised, trispecific as analyte, pH 5.5.
Description: as §2
Test [11] deals with T3, human serum albumin. Description: SPR (MASS-1), HSA immobilised, trispecific as analyte, pH 7.4.
Description: as §2
The target of test [12] is T1, human IL-17A. The experiment in a line: competitive ELISA, blocking of IL-17A/IL-17RA interaction (summary table).
Description: (§3) Finally, Tetramethylbenzidine solution was added to develop the plate for 5 to 10 minutes and the reaction was stopped with 1 M HCl. The plate was read at 450 nm and 570 nm (reference wavelength).
In test [13] the target is T1, human IL-17A. Description: SPR (Biacore T200), biotinylated antigen captured (Biotin-CAPture), trispecific as analyte.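 Note: multicycle dose-response kinetics, analyte at 0.35–90 nM in running buffer, CAP chip regenerated with fresh antigen each cycle, sensorgrams fitted to a 1:1 binding model.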
Description: as §1
Another test concerns the target T5, cynomolgus monkey IL-17A (Macaca fascicularis (cynomolgus monkey)).
T5 construct: also called cyno IL-17A; cyno IL17A
The test is described as above.

Test [14] has as its target T2, human TNFα. The test is described as above.
Description: as §1
Test [15] deals with T1, human IL-17A. Description: competitive ELISA: IL-17RA coated, biotinylated IL-17A preincubated with trispecific molecule.
Description: as §3
Test [16] deals with T1, human IL-17A. The experiment in a line: competitive ELISA: biotinylated human IL-17A preincubated with the trispecific molecule, then binding to coated IL-17RA detected (blocked ligand: IL-17RA) [left panel].
In test [17] the target is T2, human TNFα. The experiment in a line: cell-based or functional assay. The source holds these as a separate data set.
Test [18] has as its target T3, human serum albumin. The experiment in a line: SPR (MASS-1), trispecific immobilised, HSA injected as last analyte.
Description: (§4) All possible sequences of antigen injection were tested resulting in six possible sequences.
(§5) To evaluate concomitant binding of each antigen to trispecific molecules, the binding level relative to the theoretical Rmax was calculated for each injection using the respective ligand and analyte molecular masses and the immobilization level of the trispecific molecules. The average of the maximum binding relative to theoretical Rmax for each antigen was obtained by averaging individual maximum binding relative to theoretical Rmax obtained for the two injections where the respective antigen was injected as first analyte (in the absence of other bound antigens). Next, the binding relative to the theoretical Rmax of each analyte injection was compared to its average maximum binding to calculate the fraction binding obtained in the presence of other bound antigens. […] The binding levels relative to the theoretical Rmax and the average of maximum binding (binding levels in the absence of other antigens) of each antigen were calculated.
The target in test [19] is T1, human IL-17A. Description: SPR (MASS-1), trispecific immobilised, antigens injected sequentially.
Description: as §4, §5
In test [20] the target is T2, human TNFα. The test is described as above.
Description: as §4, §5
For test [21], the target named is T3, human serum albumin. The test is described as above.
Description: as §4, §5
The target in test [22] is T1, human IL-17A. The experiment in a line: competitive ELISA: biotinylated human IL-17A preincubated with the trispecific molecule, then binding to coated IL-17RA detected (blocked ligand: IL-17RA) [right panel].

Description for cynomolgus monkey IL-17A: as §1

B1: A5 (trispecific tribody, Fab-(scFv)2) (other)
light: DIQMTQSPSSLSASVGDRVTINCQASESISSWLAWYQQKPGKRPKLLIYKASTLASGVPSRFSGSGSGTDYTLTISSLQPEDFATYYCQGYYLDSSVDDNVFGGGTKLTVLGRTRTVAAPSVFIFPPSDEQLKSGTASVVCLLNNFYPREAKVQWKVDNALQSGNSQESVTEQDSKDSTYSLSSTLTLSKADYEKHKVYACEVTHQGLSSPVTKSFNRGECGGGGSGGGGSDIQMTQSPSSLSASVGDRVTITCQSSESVYSNNQLSWYQQKPGQPPKLLIYDASDLASGVPSRFSGSGSGTDFTLTISSLQPEDFATYYCAGGFSSSSDTAFGGGTKLTVLGGGGGSGGGGSGGGGSGGGGSEVQLVESGGGLVQPGGSLRLSCAASGFSLSSNAMGWVRQAPGKGLEYIGIISVGGFTYYASWAKGRFTISRDNSKNTVYLQMNSLRAEDTATYFCARDRHGGDSSGAFYLWGQGTLVTVSS
heavy: EVQLVESGGGLVQPGGSLRLSCAASGIDFSTYGISWVRQAPGKGLEWIAYIYPDYGITDYASWVNGRFTISLDNAQNTVYLQMNSLRAEDTAVYYCARSGSYYSRGWGAHYFNLWGQGTLVTVSSASTKGPSVFPLAPSSKSTSGGTAALGCLVKDYFPEPVTVSWNSGALTSGVHTFPAVLQSSGLYSLSSVVTVPSSSLGTQTYICNVNHKPSNTKVDKKVEPKSCGGGGSGGGGSDIQMTQSPSSLSASVGDRVTITCQASQTINYWLAWYQQKPGKAPKLLIYRASTLASGVPSRFSGSGSGTDFTLTISSLQPEDFATYYCQNYYYSTSRSYGFGGGTKLTVLGGGGGSGGGGSGGGGSGGGGSEVQLVESGGGLVQPGGSLRLSCAASGFSFSSDYWMCWVRQAPGKGLEWIGCIYAGDVDDTDYASWARGRFTISRDNSKNTVYLQMNSLRAEDTAVYYCARVDGFDITYFDLWGQGTLVTVSS
notes: Trispecific tribody
Regarding B1, in the test with human IL-17A [1], the “potency to neutralize IL-17A compared to A7” value was about 2 fold. The “IC50 in L929 assay, cell viability” value in the test with human TNFα [2] worked out at 0.02 nM. The “rel. IC50 in L929 assay (IC50, A13/IC50, test sample, nM)” value with human TNFα [2] is 0.9. Moreover, the “rel. IC50 to secukinumab (ng/ml) in HT-29 assay, +HSA” value with human IL-17A [3] was 63. Besides, in the test with human IL-17A [3], the “rel. IC50 to secukinumab (ng/ml) in HT-29 assay, -HSA” value was determined as 88.9. The “rel. IC50 to A13 (nM) in HT-29 assay, -HSA” value with human TNFα [4] was determined as 2.4. The Kd was 0.1 nM in the test with human TNFα [5]; 1.66 nM with human serum albumin [6]; 0.575 nM with human IL-17A [7]; 0.795 nM in the test with cynomolgus serum albumin [8]; 2.47 nM with cynomolgus serum albumin [9]; 1.66 nM in the test with human serum albumin [10]. The dissociation constant (Kd) with human serum albumin [11] worked out at 2.69 nM; with human IL-17A [13] it was 0.575 nM; with cynomolgus monkey IL-17A, 0.523 nM; with human TNFα [14], 0.1 nM. Also, the “rel. IC50 (IC50, secukinumab/IC50, test sample, ng/ml)” value with human IL-17A [12] worked out at 4.9. The “rel. IC50 to secukinumab (IC50, secukinumab/IC50, test sample, ng/ml)” value in the test with human IL-17A [15] turned out to be 4.9. Further, in the test with human IL-17A [16], the “IC50 (read off the curve)” value was about 4 ng/mL.

B2: A8 (trispecific scDb-scFv) (other)
chain: DIQMTQSPSSLSASVGDRVTITCQSSESVYSNNQLSWYQQKPGQPPKLLIYDASDLASGVPSRFSGSGSGTDFTLTISSLQPEDFATYYCAGGFSSSSDTAFGGGTKLTVLGGGGGSEVQLVESGGGLVQPGGSLRLSCAASGIDFSTYGISWVRQAPGKGLEWIAYIYPDYGITDYASWVNGRFTISLDNAQNTVYLQMNSLRAEDTAVYYCARSGSYYSRGWGAHYFNLWGQGTLVTVSSGGGGSGGGGSGGGGSGGGGSDIQMTQSPSSLSASVGDRVTINCQASESISSWLAWYQQKPGKRPKLLIYKASTLASGVPSRFSGSGSGTDYTLTISSLQPEDFATYYCQGYYLDSSVDDNVFGGGTKLTVLGGGGGSEVQLVESGGGLVQPGGSLRLSCAASGFSLSSNAMGWVRQAPGKGLEYIGIISVGGFTYYASWAKGRFTISRDNSKNTVYLQMNSLRAEDTATYFCARDRHGGDSSGAFYLWGQGTLVTVSSGGGGSGGGGSDIQMTQSPSSLSASVGDRVTITCQASQTINYWLAWYQQKPGKAPKLLIYRASTLASGVPSRFSGSGSGTDFTLTISSLQPEDFATYYCQNYYYSTSRSYGFGGGTKLTVLGGGGGSGGGGSGGGGSGGGGSEVQLVESGGGLVQPGGSLRLSCAASGFSFSSDYWMCWVRQAPGKGLEWIGCIYAGDVDDTDYASWARGRFTISRDNSKNTVYLQMNSLRAEDTAVYYCARVDGFDITYFDLWGQGTLVTVSS
notes: Single chain
As to B2, the “potency to neutralize TNFα compared to A7” value in the test with human TNFα [17] is about 2 fold. Further, the “IC50 in L929 assay, cell viability” value in the test with human TNFα [2] is 0.03 nM. For the same molecule, in the test with human TNFα [2], the “rel. IC50 in L929 assay (IC50, A13/IC50, test sample, nM)” value was found to be 0.4. In addition, in the test with human IL-17A [3], the “rel. IC50 to secukinumab (ng/ml) in HT-29 assay, +HSA” value came out at 304. Besides, the “rel. IC50 to secukinumab (ng/ml) in HT-29 assay, -HSA” value with human IL-17A [3] is 44.1. In the test with human TNFα [4], the “rel. IC50 to A13 (nM) in HT-29 assay, +HSA” value stood at 4.6. In the test with human TNFα [4], the “rel. IC50 to A13 (nM) in HT-29 assay, -HSA” value is 3.9. For the same molecule, the equilibrium dissociation constant (Kd) with human TNFα [5] turned out to be 0.185 nM; in the test with human serum albumin [6], 0.799 nM; with human IL-17A [7], 0.483 nM; with human serum albumin [10], 0.799 nM; with human serum albumin [11], 1.42 nM; in the test with human IL-17A [13], 0.483 nM. In addition, in the test with human TNFα [14], the affinity, expressed as Kd, was 0.185 nM. Also, the koff in the test with human serum albumin [10] worked out at 0.000375 s⁻¹; with human serum albumin [11] it was 0.00044 s⁻¹; in the test with human IL-17A [13], 8.36e-05 s⁻¹; in the test with human TNFα [14], 4.06e-05 s⁻¹. In addition, the kon in the test with human serum albumin [10] came to 469000 M⁻¹ s⁻¹; with human serum albumin [11], 310000 M⁻¹ s⁻¹; with human IL-17A [13], 173000 M⁻¹ s⁻¹; with human TNFα [14], 219000 M⁻¹ s⁻¹. In the test with human serum albumin [18], the “relative binding level compared to average maximum binding” value is about 70%. The “antigen binding relative to average maximum binding” value with human IL-17A [19], in the test with human TNFα [20] and in the test with human serum albumin [21] was at least 70% throughout. Moreover, the “rel. IC50 (IC50, secukinumab/IC50, test sample, ng/ml)” value in the test with human IL-17A [12] stood at 10.2. Further, the “rel. IC50 to secukinumab (IC50, secukinumab/IC50, test sample, ng/ml)” value with human IL-17A [15] turned out to be 10.2. Besides, in the test with human IL-17A [22], the “IC50 (read off the curve)” value is about 5 ng/mL.
